# Results taken from paper PMC10610038, “New Insights into the Enhancement of Adventitious Root Formation Using N,N′-Bis(2,3-methylenedioxyphenyl)urea” (Plants, 2023).
# Substrate: C/C(=C\CNc1ncnc2[nH]cnc12)CO
# Assay: purified protein
# Settings: FAD
protein,measurement,value
ZmCKX1 (cytokinin oxidase/dehydrogenase) (Zea mays) (protein) LAAGTPALGDDRGRPWPASLAALALDGKLRTDSNATAAASTDFGNITSALPAAVLYPSSTGDLVALLSAANSTPGWPYTIAFRGRGHSLMGQAFAPGGVVVNMASLGDAAAPPRINVSADGRYVDAGGEQVWIDVLRASLARGVAPRSWNDYLYLTVGGTLSNAGISGQAFRHGPQISNVLEMDVITGHGEMVTCSKQLNADLFDAVLGGLGQFGVITRARIAVEPAPARARWVRFVYTDFAAFSADQERLTAPRPGGGGASFGPMSYVEGSVFVNQSLATDLANTGFFTDADVARIVALAGERNATTVYSIEATLNYDNATAAAAAVDQELASVLGTLSYVEGFAFQRDVAYAAFLDRVHGEEVALNKLGLWRVPHPWLNMFVPRSRIADFDRGVFKGILQGTDIVGPLIVYPLNKSMWDDGMSAATPSEDVFYAVSLLFSSVAPNDLARLQEQNRRILRFCDLAGIQYKTYLARHTDRSDWVRHFGAAKWNRFVEMKNKYDPKRLLSPGQDIFN,Km,6.8 ± 1.3 µM
